Measured values published in the RNAGym collection of RNA variant scans (doi:10.1093/nar/gkz1192).

B1: CPEB3 Ribozyme (parent)
chain: UAACAGGGGGCCACAGCAGAAGCGUUCACGUCGCAGCCCCUGUCAGAUUCUGGUGAAUCUGCGAAUUCUGCUGUAUAUCUC

Variants of: B1
Assay: self-cleavage, relative activity (ratio to wild type); higher = more cleavage; in vitro, sequencing
In short: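 For each CPEB3 ribozyme variant, relative activity is its cleaved/total read fraction divided by the unmutated ribozyme's. Barcoded error-prone PCR libraries were transcribed by T7 RNA polymerase (5 hours, 37°C) and held in DNase I for 15 min before an EDTA stop, with cleavage occurring throughout. Template-switching reverse transcription and Illumina sequencing were used to read the RNAs. A 5-read minimum applied, and results are the mean of three batches.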

First: UAGCAGGGGGCCACAGCAGAAGCGUUCACGUCGCAGCCCCUGUCAGAUUCUGGUGAAUCUGCGUAUUCUGCUGUAUAUCUC [A3G A64U]
Second: UAGCAGGGGGCCACAGCAGAAGCGUUCACGUCGCAGCCCCUGUCAGAUUCUGGUGAAUCUGCGAGUUCUGCUGUAUAUCUC [A3G A65G]
The self-cleavage of the first is lower: 0.45 for the first, 0.55 for the second.

First: UAGCAGGGGGCCACAGCAGAAGCGUUCACGUCGCAGCCCCUGUCAGAUUCUGGUGAAUCUGCGAUUUCUGCUGUAUAUCUC [A3G A65U]
Second: UAGCAGGGGGCCACAGCAGAAGCGUUCACGUCGCAGCCCCUGUCAGAUUCUGGUGAAUCUGCGAAUUCUGCUGUCUAUCUC [A3G A75C]
The self-cleavage of the first is lower: 0.25 for the first, 1.07 for the second.

Going from UAGCAGGGGGCCACAGCAGAAGCGUUCACGUCGCAGCCCCUGUCAGAUUCUGGUGAAUCUGCGAAUUCUGCUGUGUAUCUC [A3G A75G] to UAGCAGGGGGCCACAGCAGAAGCGUUCACGUCGCAGCCCCUGUCAGAUUCUGGUGAAUCUGCGAAUUCUGCUGUUUAUCUC [A3G A75U], the self-cleavage rises from 1 to 1.12.

UAGCAGGGGGCCACAGCAGAAGCGUUCACGUCGCAGCCCCUGUCAGAUUCUGGUGAAUCUGCGAAUUCUGCUGUAUCUCUC [A3G A77C] and UAGCAGGGGGCCACAGCAGAAGCGUUCACGUCGCAGCCCCUGUCAGAUUCUGGUGAAUCUGCGAAUUCUGCUGUAUGUCUC [A3G A77G] are the same in self-cleavage: 1.03 for the first, 1.03 for the second.

Compared with UAGCAGGGGGCCACAGCAGAAGCGUUCACGUCGCAGCCCCUGUCAGAUUCUGGUGAAUCUGCGAAUUCUGCUGUAUUUCUC [A3G A77U], UAGAAGGGGGCCACAGCAGAAGCGUUCACGUCGCAGCCCCUGUCAGAUUCUGGUGAAUCUGCGAAUUCUGCUGUAUAUCUC [A3G C4A] is higher in self-cleavage: 0.99 for the first, 1.17 for the second.

First: UAGGAGGGGGCCACAGCAGAAGCGUUCACGUCGCAGCCCCUGUCAGAUUCUGGUGAAUCUGCGAAUUCUGCUGUAUAUCUC [A3G C4G]
Second: UAGUAGGGGGCCACAGCAGAAGCGUUCACGUCGCAGCCCCUGUCAGAUUCUGGUGAAUCUGCGAAUUCUGCUGUAUAUCUC [A3G C4U]
The self-cleavage of the first is higher: 1.15 for the first, 1.11 for the second.

Going from UAGCAGGGGGACACAGCAGAAGCGUUCACGUCGCAGCCCCUGUCAGAUUCUGGUGAAUCUGCGAAUUCUGCUGUAUAUCUC [A3G C11A] to UAGCAGGGGGGCACAGCAGAAGCGUUCACGUCGCAGCCCCUGUCAGAUUCUGGUGAAUCUGCGAAUUCUGCUGUAUAUCUC [A3G C11G], the self-cleavage rises from 0.32 to 0.54.

Going from UAGCAGGGGGUCACAGCAGAAGCGUUCACGUCGCAGCCCCUGUCAGAUUCUGGUGAAUCUGCGAAUUCUGCUGUAUAUCUC [A3G C11U] to UAGCAGGGGGCAACAGCAGAAGCGUUCACGUCGCAGCCCCUGUCAGAUUCUGGUGAAUCUGCGAAUUCUGCUGUAUAUCUC [A3G C12A], the self-cleavage rises from 0.51 to 1.16.

Compared with UAGCAGGGGGCUACAGCAGAAGCGUUCACGUCGCAGCCCCUGUCAGAUUCUGGUGAAUCUGCGAAUUCUGCUGUAUAUCUC [A3G C12U], UAGCAGGGGGCCAAAGCAGAAGCGUUCACGUCGCAGCCCCUGUCAGAUUCUGGUGAAUCUGCGAAUUCUGCUGUAUAUCUC [A3G C14A] is lower in self-cleavage: 1.22 for the first, 1.13 for the second.

Compared with UAGCAGGGGGCCAUAGCAGAAGCGUUCACGUCGCAGCCCCUGUCAGAUUCUGGUGAAUCUGCGAAUUCUGCUGUAUAUCUC [A3G C14U], UAGCAGGGGGCCACAGAAGAAGCGUUCACGUCGCAGCCCCUGUCAGAUUCUGGUGAAUCUGCGAAUUCUGCUGUAUAUCUC [A3G C17A] is lower in self-cleavage: 1.12 for the first, 0.33 for the second.

Going from UAGCAGGGGGCCACAGGAGAAGCGUUCACGUCGCAGCCCCUGUCAGAUUCUGGUGAAUCUGCGAAUUCUGCUGUAUAUCUC [A3G C17G] to UAGCAGGGGGCCACAGUAGAAGCGUUCACGUCGCAGCCCCUGUCAGAUUCUGGUGAAUCUGCGAAUUCUGCUGUAUAUCUC [A3G C17U], the self-cleavage rises from 0.55 to 0.85.

First: UAGCAGGGGGCCACAGCAGAAGAGUUCACGUCGCAGCCCCUGUCAGAUUCUGGUGAAUCUGCGAAUUCUGCUGUAUAUCUC [A3G C23A]
Second: UAGCAGGGGGCCACAGCAGAAGGGUUCACGUCGCAGCCCCUGUCAGAUUCUGGUGAAUCUGCGAAUUCUGCUGUAUAUCUC [A3G C23G]
The self-cleavage of the first is lower: 0.22 for the first, 0.33 for the second.

Compared with UAGCAGGGGGCCACAGCAGAAGUGUUCACGUCGCAGCCCCUGUCAGAUUCUGGUGAAUCUGCGAAUUCUGCUGUAUAUCUC [A3G C23U], UAGCAGGGGGCCACAGCAGAAGCGUUAACGUCGCAGCCCCUGUCAGAUUCUGGUGAAUCUGCGAAUUCUGCUGUAUAUCUC [A3G C27A] is higher in self-cleavage: 0.38 for the first, 0.45 for the second.

First: UAGCAGGGGGCCACAGCAGAAGCGUUGACGUCGCAGCCCCUGUCAGAUUCUGGUGAAUCUGCGAAUUCUGCUGUAUAUCUC [A3G C27G]
Second: UAGCAGGGGGCCACAGCAGAAGCGUUUACGUCGCAGCCCCUGUCAGAUUCUGGUGAAUCUGCGAAUUCUGCUGUAUAUCUC [A3G C27U]
The self-cleavage of the first is lower: 0.43 for the first, 0.53 for the second.

First: UAGCAGGGGGCCACAGCAGAAGCGUUCAAGUCGCAGCCCCUGUCAGAUUCUGGUGAAUCUGCGAAUUCUGCUGUAUAUCUC [A3G C29A]
Second: UAGCAGGGGGCCACAGCAGAAGCGUUCAGGUCGCAGCCCCUGUCAGAUUCUGGUGAAUCUGCGAAUUCUGCUGUAUAUCUC [A3G C29G]
The self-cleavage of the first is higher: 0.58 for the first, 0.43 for the second.

Going from UAGCAGGGGGCCACAGCAGAAGCGUUCAUGUCGCAGCCCCUGUCAGAUUCUGGUGAAUCUGCGAAUUCUGCUGUAUAUCUC [A3G C29U] to UAGCAGGGGGCCACAGCAGAAGCGUUCACGUAGCAGCCCCUGUCAGAUUCUGGUGAAUCUGCGAAUUCUGCUGUAUAUCUC [A3G C32A], the self-cleavage falls from 0.59 to 0.14.

First: UAGCAGGGGGCCACAGCAGAAGCGUUCACGUGGCAGCCCCUGUCAGAUUCUGGUGAAUCUGCGAAUUCUGCUGUAUAUCUC [A3G C32G]
Second: UAGCAGGGGGCCACAGCAGAAGCGUUCACGUUGCAGCCCCUGUCAGAUUCUGGUGAAUCUGCGAAUUCUGCUGUAUAUCUC [A3G C32U]
The self-cleavage of the first is lower: 0.17 for the first, 0.45 for the second.
